Results from patent US20060257938A1, “Method of screening for drugs that block ligand binding to a lipid binding protein” (priority 2005, published 2006).
Where a chain is given by its changes, count along the chain named. Where “and” joins values, the source holds several entries; their conditions need not be identical. Equal entries are not always repeated.

B1: 117S, 72A (protein, listed as Rattus norvegicus)
chain: AFDGTWKVDRNENYEKFMEKMGINVVKRKLGAHDNLKLTITQEGNKFTVKESSNFRNIDVVFELGVDFAYSAADGTELTGTWTMEGNKLVGKFKRVDNGKELIAVREISGNELIQTSTYEGVEAKRIFKKE
modifications: PEPTIDE (1)...(131) wild-type rat intestinal fatty acid binding protein
B2: 119I, 72A (protein, listed as Rattus norvegicus)
chain: B1 chain with S117Y, Y119I
modifications: PEPTIDE (1)...(131) wild-type rat intestinal fatty acid binding protein
B3: 119S, 72A (protein, listed as Rattus norvegicus)
chain: B1 chain with S117Y, Y119S
modifications: PEPTIDE (1)...(131) wild-type rat intestinal fatty acid binding protein
B4: 119T, 72A (protein, listed as Rattus norvegicus)
chain: B1 chain with S117Y, Y119T
modifications: PEPTIDE (1)...(131) wild-type rat intestinal fatty acid binding protein
B5: 102E, 72A (protein, listed as Rattus norvegicus)
chain: B1 chain with L102E, S117Y
modifications: PEPTIDE (1)...(131) wild-type rat intestinal fatty acid binding protein
B6: 117W, 72A (protein, listed as Rattus norvegicus)
chain: B1 chain with S117W
modifications: PEPTIDE (1)...(131) wild-type rat intestinal fatty acid binding protein
B7: 119C, 72A (protein, listed as Rattus norvegicus)
chain: B1 chain with S117Y, Y119C
modifications: PEPTIDE (1)...(131) wild-type rat intestinal fatty acid binding protein
B8: 119Q, 72A (protein, listed as Rattus norvegicus)
chain: B1 chain with S117Y, Y119Q
modifications: PEPTIDE (1)...(131) wild-type rat intestinal fatty acid binding protein
B9: 119V, 72A (protein, listed as Rattus norvegicus)
chain: B1 chain with S117Y, Y119V
modifications: PEPTIDE (1)...(131) wild-type rat intestinal fatty acid binding protein
B10: 119G, 72A (protein, listed as Rattus norvegicus)
chain: B1 chain with S117Y, Y119G
modifications: PEPTIDE (1)...(131) wild-type rat intestinal fatty acid binding protein
B11: 119A, 72A (protein, listed as Rattus norvegicus)
chain: B1 chain with S117Y, Y119A
modifications: PEPTIDE (1)...(131) wild-type rat intestinal fatty acid binding protein
B12: 117Y, 72A (protein, listed as Rattus norvegicus)
chain: B1 chain with S117Y
modifications: PEPTIDE (1)...(131) wild-type rat intestinal fatty acid binding protein
B13: 117V, 72A (protein, listed as Rattus norvegicus)
chain: B1 chain with S117V
modifications: PEPTIDE (1)...(131) wild-type rat intestinal fatty acid binding protein
B14: 119F, 72A (protein, listed as Rattus norvegicus)
chain: B1 chain with S117Y, Y119F
modifications: PEPTIDE (1)...(131) wild-type rat intestinal fatty acid binding protein
B15: 117T, 72A (protein, listed as Rattus norvegicus)
chain: B1 chain with S117T
modifications: PEPTIDE (1)...(131) wild-type rat intestinal fatty acid binding protein
B16: 102F, 72A (protein, listed as Rattus norvegicus)
chain: B1 chain with L102F, S117Y
modifications: PEPTIDE (1)...(131) wild-type rat intestinal fatty acid binding protein
B17: 11C, 72A (protein, listed as Rattus norvegicus)
chain: B1 chain with N11C, S117Y
modifications: PEPTIDE (1)...(131) wild-type rat intestinal fatty acid binding protein
B18: 119K, 72A (protein, listed as Rattus norvegicus)
chain: B1 chain with S117Y, Y119K
modifications: PEPTIDE (1)...(131) wild-type rat intestinal fatty acid binding protein
B19: 119H, 72A (protein, listed as Rattus norvegicus)
chain: B1 chain with S117Y, Y119H
modifications: PEPTIDE (1)...(131) wild-type rat intestinal fatty acid binding protein

Test: Probe fluorescence ratio response to arachidonic acid relative to ADIFAB2
Assay type: binding
Settings: arachidonic acid; response relative to ADIFAB2
Excerpt: (§1) In an alternate preferred embodiment, the protein is rI-FABP that has Ala substituted for Leu at position 72 (rI-FABP-L72A) with the resulting probe named ADIFAB2. […] Other probes useful in embodiments of the invention are shown in Tables 1-6 and are also described in U.S. application Ser. No. 11/085,792, filed Mar. 21, 2005 which is incorporated herein by reference. The indicated substitutions are with reference to the ADIFAB protein of SEQ ID NO: 2.
(§2) ADIFAB2 also has an altered spectral response, making it especially useful for measurements of FFAu in blood samples (Apple et al, Clinical Proteomics, (2004) 1:41-44, U.S. patent application Ser. No. 10/670,958). The wavelengths at the maximum intensities emitted by these fluorescently-labeled I-FABP's in the absence of FFA is about 420 to 480 nm. The emission wavelengths at the maximum intensities emitted by these fluorescently-labeled I-FABP's with FFA bound are between about 495 to 580 nm. Experiments typically involve measuring the fluorescence response within both emission maxima or at wavelengths for which the effect of interfering molecules such as hemoglobin can be eliminated as described in U.S. application Ser. No. 10/670958 and PCT/US2004/030521 and the calculation of the ratio ‘R’ of the two fluorescence intensities. The baseline value for this ratio, measured in the absence of analyte, is designated R0.
(§3) The intensity ratio (“R” value) is determined as follows. The ratio is calculated using the following formula: R=Fλ1/Fλ2 wherein, Fλ1 is the measured fluorescence intensities (intensity of sample with probe present minus intensity of sample without probe present) at wavelength 1 and Fλ2 is the measured fluorescence intensities (intensity of sample with probe present minus intensity of sample without probe present) at wavelength 2. Then, for a given probe, ΔR, the difference in R value between the measurement in the presence of the test compound (agent) and in the absence of the test compound (agent), is calculated as follows: ΔR=R+agent−R0 In some embodiments, the ΔR value may then be compared to some reference, for example, an agent with a known affinity for a given probe, by ΔR/ΔRreference. Measurements of fluorescence intensities are obtained using standard techniques.

Molecule | DR/DR AA
B1 | 1.35 and 1.467
B2 | 1.01 and 0.920
B3 | 0.78 and 0.781
B4 | 1.22
B5 | 0.56
B6 | 0.55 and 0.551
B7 | 1.06 and 1.063
B8 | 0.60
B9 | 0.99 and 0.750
B10 | 0.83
B11 | 0.70 and 0.540
B12 | 1.35
B13 | 0.82 and 0.805
B14 | 0.93
B15 | 0.79 and 0.791
B16 | 0.95 and 0.858
B17 | 0.52
B18 | 0.78
B19 | 0.71

Test: Probe fluorescence ratio response to oleic acid relative to ADIFAB2
Assay type: binding
Settings: response relative to ADIFAB2
Excerpt: as §1, §2, §3

Molecule | DR/DR OA
B1 | 1.19 and 1.258
B2 | 1.08 and 1.050
B3 | 0.71 and 0.714
B4 | 1.26
B5 | 0.60
B6 | 0.39 and 0.388
B7 | 0.97 and 0.971
B8 | 0.60
B9 | 1.02 and 0.780
B10 | 0.78
B11 | 0.63 and 0.490
B12 | 1.36
B13 | 0.81 and 0.774
B14 | 0.94
B15 | 0.81 and 0.813
B16 | 0.64 and 0.554
B17 | 0.70
B18 | 0.87
B19 | 0.59

Test: Probe fluorescence ratio response to linolenic acid relative to ADIFAB2
Assay type: binding
Settings: response relative to ADIFAB2
Excerpt: as §1, §2, §3

Molecule | DR/DR LNA
B1 | 1.07 and 1.133
B2 | 1.06 and 0.940
B3 | 0.73 and 0.734
B4 | 1.21
B5 | 0.89
B6 | 0.46 and 0.461
B7 | 1.00 and 1.001
B8 | 0.62
B9 | 1.00 and 0.710
B10 | 0.81
B11 | 0.65 and 0.520
B12 | 1.40
B13 | 0.81 and 0.767
B14 | 0.93
B15 | 0.77 and 0.775
B16 | 0.53 and 0.588
B17 | 0.64
B18 | 0.78
B19 | 0.67

Test: Probe fluorescence ratio response to palmitic acid relative to ADIFAB2
Assay type: binding
Settings: response relative to ADIFAB2
Excerpt: as §1, §2, §3

Molecule | DR/DR PA
B1 | 0.55 and 0.593
B2 | 0.69 and 0.720
B3 | 0.37 and 0.373
B4 | 0.79
B5 | 0.30
B6 | 0.34 and 0.339
B7 | 0.35 and 0.355
B8 | 0.35
B9 | 0.57 and 0.480
B10 | 0.46
B11 | 0.30 and 0.200
B12 | 1.14
B13 | 0.49 and 0.498
B14 | 0.69
B15 | 0.57 and 0.567
B16 | 0.43 and 0.369
B17 | 0.80
B18 | 0.58
B19 | 0.32

Test: Probe fluorescence ratio response to linoleic acid relative to ADIFAB2
Assay type: binding
Settings: response relative to ADIFAB2
Excerpt: as §1, §2, §3

Molecule | DR/DR LA
B1 | 1.42 and 1.533
B2 | 1.10 and 0.960
B3 | 0.46 and 0.457
B4 | 1.22
B5 | 0.65
B6 | 0.45 and 0.446
B7 | 1.02 and 1.022
B8 | 0.58
B9 | 1.01 and 0.720
B10 | 0.77
B11 | 0.61 and 0.450
B12 | 1.44
B13 | 0.94 and 0.924
B14 | 0.90
B15 | 0.92 and 0.917
B16 | 0.73 and 0.657
B17 | 0.70
B18 | 0.85
B19 | 0.63
